Reference: the RNAGym collection of RNA variant scans (doi:10.7554/elife.90254)

B1: OR4K15 (parent)
chain: GUUAACGGUCAUAGGCCAUGGAAACUAGGAGCACCAUUUCGCUGCCAGUGAAGAAAUGAACAAAGAAAAUCUGGGCCAGGCAGGCAUCAAAAGAAAUAGUCUUGCGCUCAACCAGAAAGUCUGUAAUCAUUUUAAGGGUA

Variants of: B1
Assay: self-cleavage, relative activity (ratio to wild type); higher = more cleavage; in vitro, sequencing; the parent is a self-cleaving ribozyme

Point of comparison: A110C A134G, self-cleavage 0.41. Against it:
- A111G A129G — lower, 0.01
- C109A A114G — lower, 0.11
- U108C A126G — lower, 0
- U108C A126U — lower, 0.01
- U103G G119A — lower, 0.01
- G104A A126U — lower, 0.09
- G104A A126G — lower, 0.02
- U108C U139C — lower, 0.01
- U100C A134U — higher, 2.45
- U108C A140G — lower, 0.01
- U103G U122C — lower, 0.01
- A98U U124C — higher, 2.17
- G106A U130C — lower, 0.01
- U108C G115A — lower, 0
- A98G A140G — higher, 0.69
- U108C U120A — lower, 0.01
- U108C U120C — lower, 0.01
- A110G U130C — lower, 0.09
- U103C A125U — higher, 1.45
- U102C — higher, 1.82
- U102A — higher, 0.74
- U102G — higher, 0.58
- U100G U108A — lower, 0.02
- U100C A110G — lower, 0.32
- U100C A110C — higher, 1.12
- U102A U130C — higher, 0.43
- U102A U130A — lower, 0.32
- A110U — higher, 1.34
- A110C — lower, 0.31
- A110G — lower, 0.13
- U97G U127C — higher, 0.49
- U102A U122A — higher, 1.28
- U108G A135G — lower, 0.01
- U103C U133C — higher, 1.32
- U102A U131C — higher, 0.62
- A110G G123A — lower, 0.29
- U102C A135G — higher, 1.6
- U102C A129G — higher, 1.74
- U100C C107G — lower, 0.01
- U100C A118G — higher, 1.11
- U100C A118U — higher, 0.77
- U100C G123A — higher, 2.36
- U100C G123U — higher, 2.81
- G106C — lower, 0.01
- G106U — lower, 0.01
- G106A — lower, 0.01
- G99U A129G — lower, 0.13
- U103A A111G — lower, 0.01
- A98G A126G — lower, 0.34
- C109U C128A — lower, 0.12
- U103A A135G — higher, 0.73
- A110G A117G — lower, 0.16
- U102C A110C — lower, 0.4
- U102C A110G — lower, 0.15
- C101U A118G — lower, 0.02
- A98G A129G — lower, 0.17
- A98G A129U — lower, 0.3
- U108A U130G — lower, 0
- G99A A117G — lower, 0.36
- U100C A111G — lower, 0.01
- U100C G115U — higher, 0.71
- G106U A114G — lower, 0
- C101U U127A — higher, 0.45
- C105U A118G — lower, 0.04
- U102C A126G — higher, 1.89
- U102C A126U — higher, 1.39
- U102C G123C — higher, 1.33
- U102C G123A — higher, 2.17
- U108A G123A — lower, 0.01
- G99A U131C — higher, 0.42
- G106A G136U — lower, 0.04
- U103A A114G — higher, 0.45
- C101U U131C — lower, 0.27
- U97G — higher, 1.77
- U108C A125G — lower, 0
- A111G A118U — lower, 0
- A111G A118G — lower, 0.01
- A111G A126G — lower, 0.01
- U103G — lower, 0.03
- U103C — higher, 0.7
- U103A — lower, 0.39
- G106C A118G — lower, 0
- U103C A135U — higher, 1.34
- G104A A111G — lower, 0.01
- U108C A118C — lower, 0
- U103C U130C — higher, 0.57
- A111G A116U — lower, 0.04
- A111G A116G — lower, 0.01
- U100C A129U — higher, 1.49
- G106U A118G — lower, 0.02
- A98C A117G — higher, 2.47
- A98G U124A — lower, 0.07
- A111G A125G — lower, 0.01
- C101A U122C — lower, 0.13
- U103G G104A — higher, 0.59
- A110C U122A — lower, 0.24
- U108A U131C — lower, 0.01
- A98G U108C — lower, 0
- U102C A134G — higher, 1.14
- U103C U108A — lower, 0.02
- U103C A129U — lower, 0.29
- U108A A129G — lower, 0
- C101U G106A — lower, 0
- U102C U131C — higher, 2.13
- U100C C105U — lower, 0.33
- C107U A134G — lower, 0.03
- G106A A125U — lower, 0.05
- A110G U133C — lower, 0.25
- U108A A125G — lower, 0
- U100C A126G — higher, 1.86
- U108G U139C — lower, 0
- G106U U108A — lower, 0.01
- U100A A129G — lower, 0.23
- U103C G104A — lower, 0.02
- A98U A118G — higher, 1.83
- C105A — lower, 0.03
- C105G — lower, 0.02
- C105U — lower, 0.16
- U108A A111G — lower, 0.01
- U100C A140G — higher, 2.28
- U100C A140U — higher, 2.24
- U102C A111G — lower, 0.01
- U108C A110U — lower, 0.01
- A98G U102A — lower, 0.15
- C107A A118U — lower, 0
- U97C U122C — higher, 1.21
- U102A A135U — higher, 0.49
- C107U A118G — lower, 0
- C107U A118U — lower, 0.01
- U103C U120C — lower, 0.4
- U103C U120G — lower, 0.4
- U108C A114U — lower, 0.01
- U108C A114G — lower, 0.01
- A98G A117G — higher, 0.81
- U102C U132C — higher, 2.04
- U100G — higher, 1.24
- U100A — higher, 0.61
- U100C — higher, 2.09
- C107A A111G — lower, 0.02
- U102G A126G — higher, 0.69
- U102A U108A — lower, 0.02
- U102C U133G — higher, 2.02
- U102C U133C — higher, 2.27
- G99A U120C — lower, 0.26
- C107A A114U — lower, 0
- A111G A117G — lower, 0.01
- C109U U133C — lower, 0.37
- U102A A129U — lower, 0.31
- U100C U132C — higher, 2.14
- U100A U139C — higher, 0.83
- A111C — lower, 0.01
- A111G — lower, 0.02
- A98U A111G — lower, 0.01
- U108C U130G — lower, 0
- U108C U130C — lower, 0.01
- A110G A134G — lower, 0.12
- G106A A111G — lower, 0.01
- G106A A111U — lower, 0
- C105U A114G — lower, 0.07
- U103C U139C — higher, 1.15
- U103C U139A — higher, 1.06
- A110G C121G — lower, 0.2
- U108C U127C — lower, 0.01
- U108C U127A — lower, 0.01
- A111C U131C — lower, 0
- U102A U124C — higher, 0.88
